# Experimental data reported in patent US20150344570A1 (published 2015).
# T1: FcγRIIb extracellular domain with C-terminal His tag (human, UniProt P31994 43-217)
# T1 construct: extracellular domain; Soluble receptor expressed in FreeStyle293 cells, used as analyte in Biacore; also called FcgRIIb; 2b
# T1 sequence (looked up): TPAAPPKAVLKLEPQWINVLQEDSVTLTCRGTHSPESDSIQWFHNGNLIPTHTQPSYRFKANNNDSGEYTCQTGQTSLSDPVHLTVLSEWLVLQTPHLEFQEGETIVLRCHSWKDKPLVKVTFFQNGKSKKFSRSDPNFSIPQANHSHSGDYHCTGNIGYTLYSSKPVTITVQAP
# B1: GpH7-A5/GpH7-B3 variant A330_15Y/GpL16-k0 (antibody, human IgG1, kappa)
# heavy 1: not shown
# heavy 2: not shown
# light: DIVMTQSPLSLPVTPGEPASISCQASESLVHSNRNTYLHWYLQKPGQSPQLLIYKVSNRFSGVPDRFSGSGSGTDFTLKISRVEAEDVGVYYCSQNTHVPPTFGQGTKVEIERTVAAPSVFIFPPSDEQLKSGTASVVCLLNNFYPREAKVQWKVDNALQSGNSQESVTEQDSKDSTYSLSSTLTLSKADYEKHKVYACEVTHQGLSSPVTKSFNRGEC
# notes: Heterodimerized anti-glypican-3 IgG1; mutation in the GpH7-B3 chain only; also called He Ab
# B2: GpH7-A5/GpH7-B3 variant S298_07I/GpL16-k0 (antibody, human IgG1, kappa)
# heavy 1: not shown
# heavy 2: not shown
# light: B1 light
# notes: as for B1
# B3: GpH7-A5/GpH7-B3 variant K334_09D/GpL16-k0 (antibody, human IgG1, kappa)
# heavy 1: not shown
# heavy 2: not shown
# light: B1 light
# notes: as for B1
# B4: GpH7-A5/GpH7-B3 variant I332_12R/GpL16-k0 (antibody, human IgG1, kappa)
# heavy 1: not shown
# heavy 2: not shown
# light: B1 light
# notes: as for B1
# B5: GpH7-A5/GpH7-B3 variant E333_16H/GpL16-k0 (antibody, human IgG1, kappa)
# heavy 1: not shown
# heavy 2: not shown
# light: B1 light
# notes: as for B1
# B6: GpH7-A5/GpH7-B3 variant K334_06M/GpL16-k0 (antibody, human IgG1, kappa)
# heavy 1: not shown
# heavy 2: not shown
# light: B1 light
# notes: as for B1
# B7: GpH7-A5/GpH7-B3 variant S298_03V/GpL16-k0 (antibody, human IgG1, kappa)
# heavy 1: not shown
# heavy 2: not shown
# light: B1 light
# notes: as for B1
# B8: GpH7-A5/GpH7-B3 variant A330_20W/GpL16-k0 (antibody, human IgG1, kappa)
# heavy 1: not shown
# heavy 2: not shown
# light: B1 light
# notes: as for B1
# B9: GpH7-A5/GpH7-B3 variant S298_04F/GpL16-k0 (antibody, human IgG1, kappa)
# heavy 1: not shown
# heavy 2: not shown
# light: B1 light
# notes: as for B1
# B10: GpH7-A5/GpH7-B3 variant P329_02A/GpL16-k0 (antibody, human IgG1, kappa)
# heavy 1: not shown
# heavy 2: not shown
# light: B1 light
# notes: as for B1
# B11: GpH7-A5/GpH7-B3 variant E333_02A/GpL16-k0 (antibody, human IgG1, kappa)
# heavy 1: not shown
# heavy 2: not shown
# light: B1 light
# notes: as for B1
# B12: GpH7-A5/GpH7-B3 variant K334_08L/GpL16-k0 (antibody, human IgG1, kappa)
# heavy 1: not shown
# heavy 2: not shown
# light: B1 light
# notes: as for B1
# B13: GpH7-A5/GpH7-B3 variant P329_11K/GpL16-k0 (antibody, human IgG1, kappa)
# heavy 1: not shown
# heavy 2: not shown
# light: B1 light
# notes: as for B1
# B14: GpH7-A5/GpH7-B3 variant E333_01G/GpL16-k0 (antibody, human IgG1, kappa)
# heavy 1: not shown
# heavy 2: not shown
# light: B1 light
# notes: as for B1
# B15: GpH7-A5/GpH7-B3 variant I332_01G/GpL16-k0 (antibody, human IgG1, kappa)
# heavy 1: not shown
# heavy 2: not shown
# light: B1 light
# notes: as for B1
# B16: GpH7-A5/GpH7-B3 variant P329_12R/GpL16-k0 (antibody, human IgG1, kappa)
# heavy 1: not shown
# heavy 2: not shown
# light: B1 light
# notes: as for B1
# B17: GpH7-A5/GpH7-B3 variant K334_02A/GpL16-k0 (antibody, human IgG1, kappa)
# heavy 1: not shown
# heavy 2: not shown
# light: B1 light
# notes: as for B1
# B18: GpH7-A5/GpH7-B3 variant Q295_18N/GpL16-k0 (antibody, human IgG1, kappa)
# heavy 1: not shown
# heavy 2: not shown
# light: B1 light
# notes: as for B1
# B19: GpH7-A5/GpH7-B3 variant Q295_16H/GpL16-k0 (antibody, human IgG1, kappa)
# heavy 1: not shown
# heavy 2: not shown
# light: B1 light
# notes: as for B1
# B20: GpH7-A5/GpH7-B3 variant Q295_14T/GpL16-k0 (antibody, human IgG1, kappa)
# heavy 1: not shown
# heavy 2: not shown
# light: B1 light
# notes: as for B1
# B21: GpH7-A5/GpH7-B3 variant I332_10E/GpL16-k0 (antibody, human IgG1, kappa)
# heavy 1: not shown
# heavy 2: not shown
# light: B1 light
# notes: as for B1
# B22: GpH7-A5/GpH7-B3 variant K334_05P/GpL16-k0 (antibody, human IgG1, kappa)
# heavy 1: not shown
# heavy 2: not shown
# light: B1 light
# notes: as for B1
# B23: GpH7-A5/GpH7-B3 variant S298_14T/GpL16-k0 (antibody, human IgG1, kappa)
# heavy 1: not shown
# heavy 2: not shown
# light: B1 light
# notes: as for B1
# B24: GpH7-A5/GpH7-B3 variant K334_01G/GpL16-k0 (antibody, human IgG1, kappa)
# heavy 1: not shown
# heavy 2: not shown
# light: B1 light
# notes: as for B1
# B25: GpH7-A5/GpH7-B3 variant I332_09D/GpL16-k0 (antibody, human IgG1, kappa)
# heavy 1: not shown
# heavy 2: not shown
# light: B1 light
# notes: as for B1
# B26: GpH7-A5/GpH7-B3 variant K334_04F/GpL16-k0 (antibody, human IgG1, kappa)
# heavy 1: not shown
# heavy 2: not shown
# light: B1 light
# notes: as for B1
# B27: GpH7-A5/GpH7-B3 variant S298_16H/GpL16-k0 (antibody, human IgG1, kappa)
# heavy 1: not shown
# heavy 2: not shown
# light: B1 light
# notes: as for B1
# B28: GpH7-A5/GpH7-B3 variant E333_13S/GpL16-k0 (antibody, human IgG1, kappa)
# heavy 1: not shown
# heavy 2: not shown
# light: B1 light
# notes: as for B1
# B29: GpH7-A5/GpH7-B3 variant S324_01G/GpL16-k0 (antibody, human IgG1, kappa)
# heavy 1: not shown
# heavy 2: not shown
# light: B1 light
# notes: as for B1
# B30: GpH7-A5/GpH7-B3 variant S324_02A/GpL16-k0 (antibody, human IgG1, kappa)
# heavy 1: not shown
# heavy 2: not shown
# light: B1 light
# notes: as for B1
# B31: GpH7-A5/GpH7-B3 variant K334_07I/GpL16-k0 (antibody, human IgG1, kappa)
# heavy 1: not shown
# heavy 2: not shown
# light: B1 light
# notes: as for B1
# B32: GpH7-A5/GpH7-B3 variant S298_15Y/GpL16-k0 (antibody, human IgG1, kappa)
# heavy 1: not shown
# heavy 2: not shown
# light: B1 light
# notes: as for B1
# B33: GpH7-A5/GpH7-B3 variant Q295_13S/GpL16-k0 (antibody, human IgG1, kappa)
# heavy 1: not shown
# heavy 2: not shown
# light: B1 light
# notes: as for B1
# B34: GpH7-A5/GpH7-B3 variant S298_09D/GpL16-k0 (antibody, human IgG1, kappa)
# heavy 1: not shown
# heavy 2: not shown
# light: B1 light
# notes: as for B1
# Legend:
# [1] = target: T2, FcγRIIIa extracellular domain with C-terminal His tag (human, UniProt P08637 17-208); experiment: SPR (Biacore); He/Con_3a divided by He/Con_2b (FcγRIIIa against FcγRIIb)
# T2 construct: extracellular domain; also called FcgRIIIa; 3a
# Protocol: (§1) The heterodimerized antibodies He Abs in which one of the H chains was introduced with an alteration were assayed for their binding activities to each activating FcγR and inhibitory FcγR according to the method described in Example 4. […] The activating FcγRs in FIGS. 26, 27, 28, and 29 are FcγRIa, FcγRIIa (R), FcγRIIa (H), and FcγRIIIa, respectively.
# (§2) Analysis of interaction between objective antibody and the FcγR was carried out using Biacore T100 (GE Healthcare). HBS-EP+ (GE Healthcare) was used as the running buffer, and the measurement temperature was set to 25° C. Chips produced by immobilizing the antigen peptide by the amine coupling method to a Series S Sencor Chip CM5 (GE Healthcare), or alternatively, chips produced by allowing preliminarily biotinylated antigen peptides to interact with and immobilize onto a Series S Sensor Chip SA (certified) (GE Healthcare) were used. Antibodies of interest were captured onto an antigen peptide-immobilized chip, and allowed to interact to each FcγR diluted with running buffer. To regenerate and repeatedly use the chip, the antibodies captured on the chip were washed off by reacting 10 mM glycine-HCl, pH 1.5.
# [2] = target: T1, FcγRIIb extracellular domain with …; experiment: SPR (Biacore), antibody captured on antigen peptide chip, FcγR as analyte; GpH7-A5/GpH7-B3/GpL16-k0 = 100
# Protocol: as §1, §2
# [3] = target: T2, FcγRIIIa extracellular domain with …; experiment: as above
# Protocol: as §1, §2
# T2 sequence (P08637 17-208): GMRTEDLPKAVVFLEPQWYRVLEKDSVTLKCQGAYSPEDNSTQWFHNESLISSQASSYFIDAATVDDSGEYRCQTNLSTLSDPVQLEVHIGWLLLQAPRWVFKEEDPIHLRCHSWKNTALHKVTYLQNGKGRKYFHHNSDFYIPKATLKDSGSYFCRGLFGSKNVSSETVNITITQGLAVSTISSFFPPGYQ
Binder,He_3a/2b (IIIa/IIb) [1] [ratio],He/Con_2b (relative binding activity) [2],He/Con_3a (relative binding activity) [3]
B1,1.32,95 % of control,125 % of control
B2,1.37,70.6 % of control,96.4 % of control
B3,1.69,94.8 % of control,160 % of control
B4,1.55,48.9 % of control,75.9 % of control
B5,1.24,83.3 % of control,103 % of control
B6,1.33,109 % of control,144 % of control
B7,1.69,64.5 % of control,109 % of control
B8,1.37,76.1 % of control,104 % of control
B9,1.26,65.4 % of control,82.5 % of control
B10,1.39,40.5 % of control,56.4 % of control
B11,1.26,83.8 % of control,105 % of control
B12,1.35,106 % of control,143 % of control
B13,1.76,16.9 % of control,29.6 % of control
B14,1.21,81.4 % of control,98.2 % of control
B15,1.27,87.1 % of control,111 % of control
B16,1.52,17.6 % of control,26.7 % of control
B17,1.37,108 % of control,147 % of control

Binder,He_3a/2b (IIIa/IIb) [1] [ratio],He/Con_2b (relative binding activity) [2],He/Con_3a (relative binding activity) [3]
B18,1.26,64.9 % of control,81.6 % of control
B19,1.22,62.7 % of control,76.4 % of control
B20,1.72,66.8 % of control,115 % of control
B21,1.63,142 % of control,233 % of control
B22,1.27,105 % of control,134 % of control
B23,1.45,77.9 % of control,113 % of control
B24,1.31,92.5 % of control,121 % of control
B25,1.41,147 % of control,207 % of control
B26,1.33,111 % of control,148 % of control
B27,1.2,63.5 % of control,76.5 % of control
B28,1.26,81.8 % of control,103 % of control
B29,1.29,81.1 % of control,105 % of control
B30,1.33,78.3 % of control,104 % of control
B31,1.27,119 % of control,151 % of control
B32,1.39,61.4 % of control,85.6 % of control
B33,1.51,56.9 % of control,86.1 % of control
B34,1.38,48.3 % of control,66.7 % of control
